This is an account of results in US6387638.

Assay [1] concerns the target T1, ErbB-4 receptor-Ig fusion (homodimer) (human, UniProt Q15303 26-651; Q15303 26-640). Description: phage ELISA, soluble ErbB-4-Ig as competitor. In general terms: ELISA stands for enzyme-linked immunosorbent assay.
In assay [2] the target is T2, ErbB-3 receptor-Ig fusion (homodimer) (human, UniProt P21860 20-643; P21860 20-636). As to the kind of experiment: phage ELISA, soluble ErbB-3-Ig as competitor.
For assay [3], the target named is T2, ErbB-3 receptor-Ig fusion (homodimer). Description: phage ELISA, soluble ErbB-3-Ig as competitor. The source holds these as a separate data set.
Assay [4] deals with T1, ErbB-4 receptor-Ig fusion (homodimer). Description: phage ELISA, soluble ErbB-4-Ig as competitor. The source holds these as a separate data set.
Assay [5] concerns the target T2, ErbB-3 receptor-Ig fusion (homodimer). As to the kind of experiment: phage ELISA, soluble ErbB-3-Ig as competitor. This is another data set of the same source.
Assay [6] addresses T1, ErbB-4 receptor-Ig fusion (homodimer). Description: phage ELISA, soluble ErbB-4-Ig as competitor. This is another data set of the same source.

Ends that are not written are not given here.

T1 sequence (Q15303 other isoform, or with tags, fused parts or gaps): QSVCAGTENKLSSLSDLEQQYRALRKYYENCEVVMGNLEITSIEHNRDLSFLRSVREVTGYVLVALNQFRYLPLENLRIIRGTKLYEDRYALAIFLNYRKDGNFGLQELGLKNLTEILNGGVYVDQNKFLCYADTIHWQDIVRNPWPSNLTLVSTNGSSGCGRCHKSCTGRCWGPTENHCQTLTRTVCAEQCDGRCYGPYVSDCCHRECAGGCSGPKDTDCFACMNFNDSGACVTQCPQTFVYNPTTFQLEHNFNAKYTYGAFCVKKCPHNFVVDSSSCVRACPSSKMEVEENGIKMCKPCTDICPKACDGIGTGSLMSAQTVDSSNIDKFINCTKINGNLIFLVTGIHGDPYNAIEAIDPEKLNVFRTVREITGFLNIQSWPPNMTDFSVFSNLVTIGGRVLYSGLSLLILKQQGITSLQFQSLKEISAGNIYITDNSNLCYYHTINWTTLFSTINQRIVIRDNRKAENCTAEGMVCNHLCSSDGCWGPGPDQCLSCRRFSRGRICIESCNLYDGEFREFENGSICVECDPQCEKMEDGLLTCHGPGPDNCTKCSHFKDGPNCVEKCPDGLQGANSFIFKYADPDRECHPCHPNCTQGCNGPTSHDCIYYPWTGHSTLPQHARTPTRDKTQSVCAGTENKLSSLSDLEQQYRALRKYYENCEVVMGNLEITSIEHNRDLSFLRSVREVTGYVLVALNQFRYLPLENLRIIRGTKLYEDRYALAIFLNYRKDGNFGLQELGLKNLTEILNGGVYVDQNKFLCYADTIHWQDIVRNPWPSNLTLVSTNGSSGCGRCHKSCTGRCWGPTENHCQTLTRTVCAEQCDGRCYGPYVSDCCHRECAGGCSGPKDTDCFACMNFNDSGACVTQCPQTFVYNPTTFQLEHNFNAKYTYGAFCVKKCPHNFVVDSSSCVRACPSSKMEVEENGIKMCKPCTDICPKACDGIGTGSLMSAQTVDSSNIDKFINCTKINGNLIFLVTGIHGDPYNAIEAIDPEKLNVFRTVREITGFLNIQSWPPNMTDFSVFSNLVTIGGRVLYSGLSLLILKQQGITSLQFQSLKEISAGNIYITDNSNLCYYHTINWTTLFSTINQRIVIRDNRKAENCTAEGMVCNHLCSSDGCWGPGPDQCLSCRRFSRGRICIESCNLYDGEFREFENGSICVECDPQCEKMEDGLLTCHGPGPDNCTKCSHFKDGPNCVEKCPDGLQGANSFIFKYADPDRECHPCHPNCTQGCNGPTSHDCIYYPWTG
T2 sequence (P21860 other isoform, or with tags, fused parts or gaps): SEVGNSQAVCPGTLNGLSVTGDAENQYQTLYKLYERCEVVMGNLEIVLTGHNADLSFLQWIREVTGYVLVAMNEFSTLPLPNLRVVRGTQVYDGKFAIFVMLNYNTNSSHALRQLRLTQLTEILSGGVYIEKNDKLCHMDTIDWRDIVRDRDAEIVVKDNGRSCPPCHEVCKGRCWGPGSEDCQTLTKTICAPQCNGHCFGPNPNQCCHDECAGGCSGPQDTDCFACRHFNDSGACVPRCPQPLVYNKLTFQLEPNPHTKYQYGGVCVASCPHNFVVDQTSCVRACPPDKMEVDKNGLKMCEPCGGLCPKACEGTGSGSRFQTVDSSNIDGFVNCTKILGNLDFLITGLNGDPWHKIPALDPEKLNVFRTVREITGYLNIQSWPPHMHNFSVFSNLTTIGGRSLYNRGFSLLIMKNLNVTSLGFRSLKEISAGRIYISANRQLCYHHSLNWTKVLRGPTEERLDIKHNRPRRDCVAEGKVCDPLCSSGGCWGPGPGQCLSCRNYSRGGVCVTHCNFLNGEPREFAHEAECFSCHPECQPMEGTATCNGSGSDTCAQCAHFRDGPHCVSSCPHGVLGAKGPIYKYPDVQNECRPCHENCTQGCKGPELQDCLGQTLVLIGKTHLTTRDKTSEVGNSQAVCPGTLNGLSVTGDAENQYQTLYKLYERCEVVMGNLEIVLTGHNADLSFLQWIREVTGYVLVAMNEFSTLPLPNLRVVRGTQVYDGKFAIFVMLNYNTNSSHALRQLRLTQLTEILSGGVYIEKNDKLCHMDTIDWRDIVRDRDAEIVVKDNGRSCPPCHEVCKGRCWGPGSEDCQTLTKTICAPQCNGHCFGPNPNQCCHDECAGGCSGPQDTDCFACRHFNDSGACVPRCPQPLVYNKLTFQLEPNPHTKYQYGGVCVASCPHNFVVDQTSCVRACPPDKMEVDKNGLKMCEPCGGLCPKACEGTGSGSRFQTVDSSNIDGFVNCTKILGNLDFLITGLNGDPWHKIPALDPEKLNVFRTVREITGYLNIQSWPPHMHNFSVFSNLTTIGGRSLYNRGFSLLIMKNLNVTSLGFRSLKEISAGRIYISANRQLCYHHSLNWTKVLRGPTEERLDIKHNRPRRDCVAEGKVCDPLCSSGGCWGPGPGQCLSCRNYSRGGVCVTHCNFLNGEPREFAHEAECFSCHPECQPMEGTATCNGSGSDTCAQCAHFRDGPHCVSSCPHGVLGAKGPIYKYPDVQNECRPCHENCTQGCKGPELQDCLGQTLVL

B1: HRG8: wild-type HRG-β1 177-228 (HRG-β1 EGF 1-52) fused via (GGGS)3 to pIII 323, phage-displayed (ligand, phage M13)
chain: SHLVKCAEKEKTFCVNGGECFMVKDLSNPSRYLCKCPNEFTGDRCQNYVMASGGGSGGGSGGGSNSQMAQVGDGDNSPLMNNFRQYLPSLPQSVECRPFVFSAGKPYEFSIDCDKINLFRGVFAFLLYVATFMYVFSTFANILRNKES
notes: range 323-end; Monovalent M13 phage display; also called wild-type HRG-β1 EGF-phage
Regarding B1, the “EC50(wt)/EC50(mut)” value in assay [1] and in assay [2] was 1 ratio throughout.

B2: HRG-β1 177-244 L179M, phage-displayed (Example 4 clone) (ligand)
chain: SHMVKCAEKEKTFCVNGGECFMVKDLSNPSRYLCKCPNEFTGDRCQNYVMASFYKHLGIEFMEAEELY
notes: not shown: Display carrier only: the M13 pIII C-terminal fragment from residue 247
Consider B2, for which the “EC50 Mut/WT” value in assay [3] was 1.2 ratio; in assay [4] it was 1.5 ratio.

B3: HRG-β1 177-244 F189A, phage-displayed (ligand)
chain: SHLVKCAEKEKTACVNGGECFMVKDLSNPSRYLCKCPNEFTGDRCQNYVMASFYKHLGIEFMEAEELY
Regarding B3, the concentration for a half-maximal effect (EC50) (as a rule, the concentration giving half of the maximal effect) was 892 nM in assay [5] and 106 nM in assay [6].

B4: HRG-β1 177-244 H178E L179V, phage-displayed (Example 4 clone) (ligand)
chain: SEVVKCAEKEKTFCVNGGECFMVKDLSNPSRYLCKCPNEFTGDRCQNYVMASFYKHLGIEFMEAEELY
notes: also called E V ·; not shown: M13 pIII C-terminal fragment (fusion point pIII 247), the phage display partner
With B4, the “EC50 Mut/WT” value in assay [3] was 0.8 ratio; in assay [4], 1.7 ratio.

B5: HRG-β1 177-244 H178T L179M, phage-displayed (Example 4 clone) (ligand)
chain: STMVKCAEKEKTFCVNGGECFMVKDLSNPSRYLCKCPNEFTGDRCQNYVMASFYKHLGIEFMEAEELY
notes: also called T M ·; not shown: M13 pIII C-terminal fragment (fusion point pIII 247), the phage display partner
As for B5, the figures for the “EC50 Mut/WT” value in assay [3] and in assay [4] were 1.4 ratio and 1.6 ratio, respectively.

B6: HRG-β1 177-244 F216A, phage-displayed (ligand, phage M13)
chain: SHLVKCAEKEKTFCVNGGECFMVKDLSNPSRYLCKCPNEATGDRCQNYVMASFYKHLGIEFMEAEELYGGSGGGSGSGDFDYEKMANANKGAMTENADENALQSDAKGKLDSVATDYGAAIDGFIGDVSGLANGNGATGDFAGSNSQMAQVGDGDNSPLMNNFRQYLPSLPQSVECRPFVFSAGKPYEFSIDCDKINLFRGVFAFLLYVATFMYVASTFANILRNKES
notes: range 247-end
The molecule B6 gave an EC50 in assay [5] of 500 nM.

B7: HRG-β1 EGF variant D4, phage-displayed (ligand)
chain: SHLVKCAEKEKTFCVNGGECYRVKTLSNPSRYLCKCPNEFTGDRCQNYVMAS
modifications: not fully specified; cysteine pairing not given here
notes: pHRG8-g3 scaffold; not shown: Display carrier only: the (GGGS)3 linker and the M13 pIII C-terminal fragment from residue 323
Regarding B7, the “EC50(wt)/EC50(mut)” value came out at 5 ratio in assay [1] and 2.9 ratio in assay [2].
